Data published in FireProtDB (doi:10.1002/pro.5560040106).

Settings: Bacillus subtilis (strain 168), pH 7, Urea, CD, Potassium phosphate 10 mM, reversible: yes, whole UniProt chain shown

B1: Phosphocarrier protein HPr wild type, P08877 (protein)
chain: MAQKTFKVTADSGIHARPATVLVQTASKYDADVNLEYNGKTVNLKSIMGVMSLGIAKGAEITISASGADENDALNALEETMKSEGLGE
In the case of B1, the denaturant m value (10 °C) is reported as 1.04 kcal/mol/M, the “denaturant midpoint (higher = more stable)” value (“denaturant midpoint” for short) (10 °C) is reported as 3.32 M and the unfolding free energy (10 °C) is reported as 3.45 kcal/mol. For the same protein, the denaturant m value (15 °C) was 1.06 kcal/mol/M, the “denaturant midpoint” value (15 °C) was 3.52 M and the unfolding free energy (15 °C) was 3.73 kcal/mol. The denaturant m value (25 °C) was 1.08 kcal/mol/M, the “denaturant midpoint” value (25 °C) was 3.9 M and the unfolding free energy (25 °C) was 4.21 kcal/mol. For the same protein, the denaturant m value (35 °C) was 1.05 kcal/mol/M, the “denaturant midpoint” value (35 °C) was 3.77 M and the unfolding free energy (35 °C) was 3.96 kcal/mol. The denaturant m value (40 °C) was 1.04 kcal/mol/M, the “denaturant midpoint” value (40 °C) was 3.64 M and the unfolding free energy (40 °C) was 3.79 kcal/mol.
